Data on one molecule can be found in patent CN113621065A (WUHAN HSA BIND BIOTECHNOLOGY CO LTD, dated 2021).

One test concerns the target T1, 人4-1BB胞外区蛋白(hu4-1BB ECD) (human, UniProt Q07011 24-186).
T1 construct: extracellular domain; also called 人4-1BB蛋白; 抗原4-1BB
Briefly: single-phage ELISA, 100 ng/well coated 4-1BB.

A further test addresses T2, 阴性对照蛋白BSA (UniProt P02769 25-607).
T2 construct: also called 对照BSA
Briefly: single-phage ELISA, 100 ng/well coated protein.

T2 sequence (P02769 25-607 limits assumed): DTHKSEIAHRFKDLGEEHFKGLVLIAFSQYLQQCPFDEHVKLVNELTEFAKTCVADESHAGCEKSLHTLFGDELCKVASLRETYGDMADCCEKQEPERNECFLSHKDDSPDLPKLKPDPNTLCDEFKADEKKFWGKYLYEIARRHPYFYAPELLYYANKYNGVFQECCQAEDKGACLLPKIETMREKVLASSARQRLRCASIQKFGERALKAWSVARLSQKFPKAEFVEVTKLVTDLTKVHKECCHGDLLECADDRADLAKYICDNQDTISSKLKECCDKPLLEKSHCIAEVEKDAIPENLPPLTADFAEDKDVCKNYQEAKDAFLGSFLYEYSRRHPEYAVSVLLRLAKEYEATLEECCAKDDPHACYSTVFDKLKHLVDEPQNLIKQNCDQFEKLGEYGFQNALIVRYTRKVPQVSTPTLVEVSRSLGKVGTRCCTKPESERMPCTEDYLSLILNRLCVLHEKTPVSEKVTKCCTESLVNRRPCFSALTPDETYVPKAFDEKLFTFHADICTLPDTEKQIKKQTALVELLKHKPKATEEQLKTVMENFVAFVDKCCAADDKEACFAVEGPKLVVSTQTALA

B1: 抗体(scFv)8F5 (scFv)
scFv: QVQLVQSGAEVKKPGASVKVSCKPSGYTFTSHYIHWVRQAPGQGLEWMGWINPNSGGTNYAQKFQGRVTMTRDTSISTAYMELSRLRSDDTAVYYCARDGGGMDVWGKGTMVTVSSGGGGSGGGGSGGGGSQSALTQPASVSGSPGQSITISCTGTSSDVGGYDFVSWYQHHPGKAPKLMIYGVANRPSGVSNRFSGSKSGNTASLTISGLQAEDDADYYCSSYSSTSTRYVFGTGTKVTVLG
On to B1, for which the results for the binding result with 人4-1BB胞外区蛋白(hu4-1BB ECD) and with 阴性对照蛋白BSA were “binds” and “no binding”, respectively.
